Test results from patent publication US20050065082A1 (published 2005).

Experiments:
[1] = target: T1, GST-BPL1 (N-terminal GST fusion protein of human BPL1, holocarboxylase synthetase) (human, UniProt P50747 1-726); assay: not described, Example 4 holds only kinase assays
T1 construct: Expressed in E. coli BL21; not shown: glutathione S-transferase (GST) tag encoded by the pGEX-4T vector (Amersham Pharmacia Biotech), N-terminal
T1 sequence: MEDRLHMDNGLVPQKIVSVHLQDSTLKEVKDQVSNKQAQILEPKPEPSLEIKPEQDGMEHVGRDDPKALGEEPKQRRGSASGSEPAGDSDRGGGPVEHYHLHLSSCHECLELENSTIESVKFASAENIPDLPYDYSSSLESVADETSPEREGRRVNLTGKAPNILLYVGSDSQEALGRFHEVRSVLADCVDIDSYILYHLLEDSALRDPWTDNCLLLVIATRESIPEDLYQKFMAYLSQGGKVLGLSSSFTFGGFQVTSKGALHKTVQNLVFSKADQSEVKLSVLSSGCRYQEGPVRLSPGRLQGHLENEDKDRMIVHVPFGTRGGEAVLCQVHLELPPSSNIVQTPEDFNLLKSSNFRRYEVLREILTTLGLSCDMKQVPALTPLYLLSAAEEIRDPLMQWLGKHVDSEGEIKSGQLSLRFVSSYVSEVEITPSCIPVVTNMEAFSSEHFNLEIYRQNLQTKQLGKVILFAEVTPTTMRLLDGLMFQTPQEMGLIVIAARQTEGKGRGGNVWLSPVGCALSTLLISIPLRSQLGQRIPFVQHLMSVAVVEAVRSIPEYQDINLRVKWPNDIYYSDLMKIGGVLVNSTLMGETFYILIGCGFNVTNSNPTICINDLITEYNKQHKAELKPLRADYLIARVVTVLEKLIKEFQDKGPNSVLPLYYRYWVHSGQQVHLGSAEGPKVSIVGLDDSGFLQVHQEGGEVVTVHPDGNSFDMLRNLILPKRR

[2] = target: T2, GST-BMAL1 (N-terminal GST fusion protein of human BMAL1; BMAL1b was used) (human, UniProt O00327 1-626); assay: not described, Example 3 holds only kinase assays
T2 construct: Expressed in E. coli BL21; not shown: glutathione S-transferase (GST) tag encoded by the pGEX-4T vector (Amersham Pharmacia Biotech), N-terminal
T2 sequence (O00327 whole entry, the tested form may be a part): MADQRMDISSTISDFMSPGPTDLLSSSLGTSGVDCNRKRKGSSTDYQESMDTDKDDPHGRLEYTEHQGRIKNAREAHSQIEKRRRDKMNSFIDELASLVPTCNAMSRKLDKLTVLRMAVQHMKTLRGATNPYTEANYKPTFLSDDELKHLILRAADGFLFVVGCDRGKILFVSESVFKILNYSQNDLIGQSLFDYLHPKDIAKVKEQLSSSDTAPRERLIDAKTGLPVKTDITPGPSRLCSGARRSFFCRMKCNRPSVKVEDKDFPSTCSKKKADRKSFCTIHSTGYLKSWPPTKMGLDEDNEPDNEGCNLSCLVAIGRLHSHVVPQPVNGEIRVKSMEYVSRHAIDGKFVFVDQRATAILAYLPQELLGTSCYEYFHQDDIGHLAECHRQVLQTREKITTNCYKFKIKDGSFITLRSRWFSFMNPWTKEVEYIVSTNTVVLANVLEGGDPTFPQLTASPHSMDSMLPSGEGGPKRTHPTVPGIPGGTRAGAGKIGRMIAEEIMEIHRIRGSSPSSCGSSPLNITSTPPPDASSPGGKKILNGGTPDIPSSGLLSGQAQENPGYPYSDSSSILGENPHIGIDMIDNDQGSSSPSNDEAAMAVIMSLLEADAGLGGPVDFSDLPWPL

B1: His-JNK3 (activated human JNK3 (JNK3α1) with an N-terminal histidine-tag) (enzyme, UniProt P53779-2 1-422, looked up)
chain: MSLHFLYYCSEPTLDVKIAFCQGFDKQVDVSYIAKHYNMSKSKVDNQFYSVEVGDSTFTVLKRYQNLKPIGSGAQGIVCAAYDAVLDRNVAIKKLSRPFQNQTHAKRAYRELVLMKCVNHKNIISLLNVFTPQKTLEEFQDVYLVMELMDANLCQVIQMELDHERMSYLLYQMLCGIKHLHSAGIIHRDLKPSNIVVKSDCTLKILDFGLARTAGTSFMMTPYVVTRYYRAPEVILGMGYKENVDIWSVGCIMGEMVRHKILFPGRDYIDQWNKVIEQLGTPCPEFMKKLQPTVRNYVENRPKYAGLTFPKLFPDSLFPADSEHNKLKASQARDLLSKMLVIDPAKRISVDDALQHPYINVWYDPAEVEAPPPQIYDKQLDEREHTIEEWKELIYKEVMNSEEKTKNGVVKGQPSPSAQVQQ
notes: Expressed in Sf9 cells by recombinant baculovirus, purified with Probond Resin; not shown: N-terminal His-tag and vector residues of pFastBac HT
- binding result [1]: binds
- binding result [2]: binds
